Here are results for three molecules from patent publication US20230272048A1 (UNIVERSITY OF MELBOURNE, published 2023).

In one assay the target is T1, E87A (HIV-1).
T1 construct: full-length Env of lysed pseudovirus; HXB-2 numbering
Nature of the assay: capture ELISA on Env of lysed AD8 pseudovirus, % of WT. (In general: ELISA stands for enzyme-linked immunosorbent assay.)

The target of the next assay is T2, K121A (HIV-1).
T2 construct: full-length Env of lysed pseudovirus; HXB-2 numbering
The description is as above.

The next assay concerns the target T3, L179A (HIV-1).
T3 construct: full-length Env of lysed pseudovirus; HXB-2 numbering
Described as above.

In a further assay the target is T4, D185A (HIV-1).
T4 construct: full-length Env of lysed pseudovirus; HXB-2 numbering
Described as above.

A further assay concerns the target T5, N197A (HIV-1).
T5 construct: full-length Env of lysed pseudovirus; HXB-2 numbering
Described as above.

The target in another assay is T6, N262A (HIV-1).
T6 construct: full-length Env of lysed pseudovirus; HXB-2 numbering
Described as above.

For the next assay, the target named is T7, N276A (HIV-1).
T7 construct: full-length Env of lysed pseudovirus; HXB-2 numbering
The assay is described as above.

A further assay has as its target T8, K282A (HIV-1).
T8 construct: full-length Env of lysed pseudovirus; HXB-2 numbering
The description is as above.

The next assay addresses T9, N283A (HIV-1).
T9 construct: full-length Env of lysed pseudovirus; HXB-2 numbering
The description is as above.

A further assay has as its target T10, P313A (HIV-1).
T10 construct: full-length Env of lysed pseudovirus; HXB-2 numbering
The assay is described as above.

For the next assay, the target named is T11, A329K (HIV-1).
T11 construct: full-length Env of lysed pseudovirus; HXB-2 numbering
The assay is described as above.

The target in the next assay is T12, Q363A (HIV-1).
T12 construct: full-length Env of lysed pseudovirus; HXB-2 numbering
Described as above.

Another assay has as its target T13, S365A (HIV-1).
T13 construct: full-length Env of lysed pseudovirus; HXB-2 numbering
Described as above.

Another assay deals with T14, P369A (HIV-1).
T14 construct: full-length Env of lysed pseudovirus; HXB-2 numbering
The assay is described as above.

Another assay concerns the target T15, M373A (HIV-1).
T15 construct: full-length Env of lysed pseudovirus; HXB-2 numbering
Described as above.

The target in the next assay is T16, R419A (HIV-1).
T16 construct: full-length Env of lysed pseudovirus; HXB-2 numbering
Described as above.

Another assay deals with T17, G472A (HIV-1).
T17 construct: full-length Env of lysed pseudovirus; HXB-2 numbering
Described as above.

A further assay addresses T18, M475A (HIV-1).
T18 construct: full-length Env of lysed pseudovirus; HXB-2 numbering
Described as above.

Another assay deals with T19, R476A (HIV-1).
T19 construct: full-length Env of lysed pseudovirus; HXB-2 numbering
The description is as above.

The target of another assay is T20, SS-B (human, UniProt P05455 1-408).
T20 sequence (looked up): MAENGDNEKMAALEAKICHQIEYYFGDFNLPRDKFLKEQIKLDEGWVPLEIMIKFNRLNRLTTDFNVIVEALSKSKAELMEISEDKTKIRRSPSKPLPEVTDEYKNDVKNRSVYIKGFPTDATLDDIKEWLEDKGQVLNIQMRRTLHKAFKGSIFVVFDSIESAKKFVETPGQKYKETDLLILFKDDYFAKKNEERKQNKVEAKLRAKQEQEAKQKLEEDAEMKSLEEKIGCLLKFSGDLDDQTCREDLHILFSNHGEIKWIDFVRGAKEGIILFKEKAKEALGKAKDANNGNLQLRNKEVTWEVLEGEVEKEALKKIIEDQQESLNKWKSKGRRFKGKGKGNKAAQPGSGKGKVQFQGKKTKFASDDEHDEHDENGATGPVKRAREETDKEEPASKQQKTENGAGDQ
Nature of the assay: single autoantigen ELISA (AESKULISA ANA-8Pro), FIG. 9A.

Another assay addresses T21, CenpB (human, UniProt P07199 1-599).
T21 sequence (looked up): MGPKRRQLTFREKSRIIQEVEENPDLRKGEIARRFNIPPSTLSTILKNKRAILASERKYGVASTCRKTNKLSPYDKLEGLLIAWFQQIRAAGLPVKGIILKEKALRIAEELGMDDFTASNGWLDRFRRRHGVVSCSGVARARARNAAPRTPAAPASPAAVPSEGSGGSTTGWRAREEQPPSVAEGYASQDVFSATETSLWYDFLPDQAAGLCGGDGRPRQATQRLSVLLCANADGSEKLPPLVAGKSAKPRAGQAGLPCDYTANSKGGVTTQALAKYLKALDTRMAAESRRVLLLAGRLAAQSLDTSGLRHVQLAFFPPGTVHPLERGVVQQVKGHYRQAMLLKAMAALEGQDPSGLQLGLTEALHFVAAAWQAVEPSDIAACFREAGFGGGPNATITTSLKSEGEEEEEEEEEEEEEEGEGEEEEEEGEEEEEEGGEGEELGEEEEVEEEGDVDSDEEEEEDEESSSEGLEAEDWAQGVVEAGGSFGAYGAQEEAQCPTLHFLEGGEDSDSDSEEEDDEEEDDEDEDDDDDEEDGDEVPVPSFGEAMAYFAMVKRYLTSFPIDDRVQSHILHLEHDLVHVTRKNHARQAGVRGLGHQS
The assay is described as above.

Text for CenpB: (§1) Polyreactivity assay: Single autoantigen reactivity. […] ANA-8Pro (Aesku) for U1-ribonucleoprotein (RNP), SnRNP/Sm, Sm, SS-A, SS-B, Jo-1, Scl-70, and CenpB. The 96 wells were coated with these cellular and nuclear antigens for the qualitative detection of mAbs reactivity. The cut-off calibrator, negative control and positive control were provided by the manufacturer.
Text for SS-B: as §1

B1: MEL-1872 (antibody)
VH: KVQLRESGPSLVKPSQTLSLTCTASGFSLSDKAVGWVRQAPGQPLEWLGTIDTTGNAVYNPGLKSRLSITKDNSKSQVSLSLSSVTTEDSATYHCSTVHQKTRRSCPSDYSFICDCEGTGSHCCRASNCPYYCNYGRDRMCTGRSNIHEWHVDAWGQGLLVTVSS
VL: QAVLTQPSSVSGSLGQRVSTTCSGSSSNVGNGYVSWYQLIPGSAPRTLIYGDTSRASGVPDRFSGSRSGNTVTLTISSLQAEDEADYFCASAEDGSSNAVFGRGTTLTV
notes: also called H 1872; BrNAb MEL-1872
Turning to B1, the “Env binding (%) at antibody EC50” value with E87A was 87%; with K121A, 94%; in the assay with L179A, 110%; with D185A, 99%; in the assay with N197A, 92%; with N262A, 27%. For the same molecule, the “Env binding (%) at antibody EC50” value with N276A amounted to 100%; in the assay with K282A it was 63%; with N283A, 76%; with P313A, 100%; in the assay with A329K, 38%; with Q363A it was 93%. The “Env binding (%) at antibody EC50” value is 70% with S365A; 88% in the assay with P369A; 102% with M373A; 108% with R419A; 29% with G472A; 82% with M475A. The “Env binding (%) at antibody EC50” value in the assay with R476A stood at 57%.

B2: MEL-1842 (antibody)
VH: KVQLQESGPSLVKPSQTLSLTCTASGFSLSDKAVGWVRQAPGQALEWLGSIDTGGNADYNPGLKSRLSITKDNAKSQVSLSVSSVTTEGSATYYCSTVHQKTLRSCPSDYPYICDCEDTGSHCCRATNCPYYCNHGRDRMCTGRTYTYEWHVEAWGQGLLVTVSS
VL: QAVLTQPSSVSGSLGQRVSTTCSGSSSNVGNGYVSWYQLIPGSAPRTLIYGDTSRASGVPDRFSGSRSGNTVTLTISSLQAEDEADYFCASAEDGSSNAVFGRGTTLTV
notes: also called H 1842; BrNAb MEL-1842
For the molecule B2, the binding result with SS-B and with CenpB was “no binding (tested: 100 µg/ml)” throughout. Also, the “Env binding (%) at antibody EC50” value was found to be 108% in the assay with E87A; 107% with K121A; 110% with L179A; 100% in the assay with D185A; 93% with N197A; 44% in the assay with N262A. The “Env binding (%) at antibody EC50” value with N276A amounted to 100%; in the assay with K282A, 84%; with N283A, 82%; with P313A, 100%; in the assay with A329K it was 101%; in the assay with Q363A, 97%. In addition, the “Env binding (%) at antibody EC50” value with S365A was 37%; in the assay with P369A it was 94%; with M373A it was 102%; in the assay with R419A, 110%; with G472A, 39%; with M475A, 99%. In addition, the “Env binding (%) at antibody EC50” value in the assay with R476A came to 81%.

B3: MEL-2129 (antibody)
VH: KVQLRESGPSLVKPSQTLSLTCTASGFSLSDKAVGWVRQAPGKALEWLGSIDTGGNAGYNPGLKSRLSITKGNSKSQVSLSVSSVTTEDSATYYCSTVHQKTRRSCPVDYYYSCDCEGSGSHCCSASNCPYYCKYGRDRVCTDKHTYSYEWYVDAWGQGLLVTVSS
VL: QAVLTQPSSVSGSLGQRVSTTCSGSSSNVGNGYVSWYQLIPGSAPRTLIYGDTSRASGVPDRFSGSRSGNTVTLTISSLQAEDEADYFCASAEDGSSNAVFGRGTTLTV
notes: also called BrNAb MEL-2129
B3: the binding result with SS-B and with CenpB was “no binding (tested: 100 µg/ml)” each time. The “Env binding (%) at antibody EC50” value with E87A was determined as 81%; with K121A, 80%; in the assay with L179A, 101%; in the assay with D185A, 93%; in the assay with N197A, 82%; with N262A, 18%. Besides, the “Env binding (%) at antibody EC50” value in the assay with N276A worked out at 89%; with K282A, 85%; with N283A, 64%; with P313A it was 84%; in the assay with A329K, 46%; in the assay with Q363A, 79%. Further, the “Env binding (%) at antibody EC50” value in the assay with S365A came to 126%; with P369A it was 81%; in the assay with M373A, 92%; with R419A it was 93%; in the assay with G472A it was 15%; with M475A, 63%. In the assay with R476A, the “Env binding (%) at antibody EC50” value came out at 64%.
